Data as given in patent US8362216B2, “Method of detection using antibodies that specifically bind hedgehog-derived polypeptides” (The Johns Hopkins University School of Medicine, priority 1994, dated 2013).
Entries after “also recorded” stand apart in the source; their conditions may differ.

Experiments:
His6Hh-C protein = His6Hh-C protein (Drosophila melanogaster, UniProt Q02936, DEL89-254); assay: In vitro autocleavage reaction of bacterially expressed His6Hh-C protein (DTT / lipid stimulation); settings: lipid added with 1 mM DTT (cholesterol 0.35 mM)
Chain of His6Hh-C protein (Q02936 other isoform, or with tags, fused parts or gaps DEL89-254): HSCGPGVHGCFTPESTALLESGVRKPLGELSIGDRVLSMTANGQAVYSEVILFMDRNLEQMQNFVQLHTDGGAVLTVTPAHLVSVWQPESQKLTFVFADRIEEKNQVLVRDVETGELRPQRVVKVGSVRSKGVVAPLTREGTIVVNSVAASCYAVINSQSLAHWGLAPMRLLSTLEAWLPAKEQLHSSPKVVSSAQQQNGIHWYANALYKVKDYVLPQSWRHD

cholesterol biosynthesis = assay: Sterol analysis by HPLC of COS-7 cells metabolically labelled with [3H]-mevalonic acid; format: cell-based, green monkey; settings: 28 mM jervine
Procedure: Given the structural similarities of these compounds to cholesterol and the similar teratogenic effects of cholesterol synthesis inhibitors upon the offspring of pregnant rats, a reasonable mechanism to consider for the effects of these plant sterol derivatives was the inhibition of cholesterol biosynthesis. Accordingly, COST cultured cells treated with jervine were tested for defects in cholesterol biosynthesis by labelling with [3H]-mevalonic acid and then extracting and analyzing radiolabeled, non-saponifiable lipids.
Metabolic labeling and sterol analysis was essentially as described (Popjak et al. J. Biol. Chem. 264: 630-6238.1989; Rilling et al. 1993 Arch. Biochem. Biophys. 301: 210-215.), with minor modifications. Briefly, COS-7 cells were plated at ˜35% confluence into two 60 mm dishes at 37° C. in 4 ml each of Dulbecco's modified Eagle's medium (DMEM) supplemented with 10% fetal bovine serum (FBS). After 24 hr of growth the medium in each dish was replaced with 2 ml fresh medium with 10% FBS; [^3H]-mevalonic acid (NEN #NET 176) brought to a specific activity of 0.8 Ci/mmol in a 1% solution of bovine serum albumin was added to this medium to a final concentration of […]. At this time, one dish received […] of a 4 mg/ml solution of jervine in ethanol (final concentration 28 mM jervine), and the other received […] of ethanol. After 24 hr further incubation, cells were washed in PBS, extracted with methanol, and 1 M potassium hydroxide (KOH) added to 10%. Following a three hour incubation at 60° C., the methanol/KOH mixture was extracted with diethyl ether, the extract dried down, resuspended in isopropanol, and subjected to reverse phase HPLC analysis by the method of Rodriguez and Parks (Methods in Enzymology 111: 37-51 1985).

auto-proteolysis = assay: In vitro translation of wild-type and mutant Hh proteins (mapping of auto-proteolysis); format: biochemical, Drosophila; zebrafish
Hh autoprocessing = assay: In vitro autocleavage assays of site-directed mutant His6Hh-C proteins; settings: 6 hours at 30° C.
[1] = tested on: wg and dpp expression in imaginal discs; assay: Signaling in imaginal discs of thermally cycled larvae (wg-lacZ / dpp-lacZ, X-gal staining); settings: thermal cycling of larvae
Source text: For studies of signaling in imaginal discs, a thermal cycler was utilized to subject larvae carrying heat shock-inducible hh constructs to successive rounds of heat shock and recovery. The effects of temperature cycling upon expression of dpp and wg in imaginal discs was examined by monitoring β-galactosidase expression from a reporter gene carrying dpp promoter sequences or from an enhancer detector P element inserted in the wg gene. In FIG. 7, X-gal staining was used to follow expression of wg FIG. 7 (A-C) or dpp FIG. 7 (D-L) in imaginal discs of late third-instar larvae that carry wg-lacZ or dpp-lacZ reporter genes.
Virgin female flies from the homozygous lines hshh (D. T. Chang et al., Development, 1994, in press), hshh H329A, and y^1 w^1118 were crossed to males from the homozygous BS3.0 line (bearing a P element dpp reporter construct on the 2nd chromosome, referred to as dpp-lacZ) (R. K. Blackman, et al., Development 111: 657, 1991) or the line y; Sco/CyO, enlacZ11::wg (bearing a wg reporter P element enhancer trap on a second chromosome balancer; called wg-lacZ) (J. A. Kassis, et al., Proc. Natl. Acad. Sci. U.S.A. 89; 1919, 1992). Progeny were grown at 25° C. in aerated 0.5-ml microcentrifuge tubes containing yeast paste until the late second instar or early third instar stage of larval development. […]

wg expression = assay: Embryonic induction of wg expression after heat shock of hshh / hshh H329A embryos (in situ hybridization)
Source text: To ascertain the importance of auto-proteolysis for these functions, the H329A mutant gene under control of the hsp 70 promoter was introduced by P element-mediated transformation into the Drosophila germline. The hshh H329A construct was made identically to the hshh construct with the use of a hh ORF fragment containing the H329A mutation. Transgenic flies were generated from a y^1 w^1118 parental strain using standard methods of P element mediated transformation (A. C. Spradling and G. M. Rubin, Science 218: 341 1982). […] To assay for expansion of wg stripes, embryos collected at 4 to 6 hours after egg laying (AEL) at 25° C. were subjected to the following heat shock protocols prior to fixation. Embryos receiving single shocks (10 or 30 minutes at 37° C.) were allowed to recover for 1 hour at 25° C. Embryos receiving double shocks (two 10 minute or two 30 minute shocks at 37° C.) were allowed to recover 90 minutes after the first shock and 40 minutes after the second (Both recoveries were at 25° C. The double 30 minute protocol was as previously described, (S. Krauss, supra). In situ hybridizations were performed as described (D. Tautz, Chromosoma 98: 81, 1989) using a wg specific probe (D. T. Chang et al., supra). Embryos assayed for cuticle phenotype were heat shocked 6 to 8 hours AEL for 30 minutes at 37° C., allowed to develop at 25° C. for 36 hours and then processed and mounted as described (M. Ashburner, Drosophila: A Laboratory Manual, Cold Spring Harbor Laboratory Press, New York, 1989).

[2] = Heparin agarose binding of in vitro translated Hh protein species; parameters: species or system Drosophila; settings: wash with 0.1% Triton X-100 and 150 mM NaCl
Procedure: In vitro translations were performed with the use of the TNT coupled transcription-translation system (Promega). ^35S methionine (DuPont NEN) was used for detection by autoradiography. […] Samples were incubated at 4° C. for four hours with gentle rocking. After pelleting the beads, supernatants in some samples were analyzed (lanes 2 and 4). The beads were then washed 5 times with chilled HBB and samples (lanes 3 and 5) were subsequently eluted at 80° C. for 10 minutes in SDS PAGE loading buffer (F. M. Ausubel et al., supra).
One possible explanation for this differential behavior might be association of the N fragment with extracellular matrix proteins on the surfaces of the S2 cells. Accordingly, the relative affinity of these two proteins for heparin agarose was examined, since heparin binding is a common property of proteins that associate with the extracellular matrix. Given the obvious difficulty in obtaining soluble N from cultured cells, in vitro translation in the presence of microsomes was used to generate soluble, labelled N and C. […] Furthermore, N but not C was retained upon the heparin agarose beads upon extensive washing with a solution that contains 0.1% Triton X-100 and 150 mM NaCl; in contrast, neither fragment was retained by unmodified agarose. […]

[3] = tested on: pax-2 and pax-6 expression; assay: Ectopic expression of twhh derivatives by mRNA injection into zebrafish embryos; format: in vivo; settings: mRNA injected embryos
Procedure: To gain insight into the potential roles of hh products in development, synthetic twhh and shh mRNA was injected into 1-8 cell embryos. This technique yields a mosaic but fairly uniform pattern of expression, as determined for the control mRNA encoding β-galactosidase (not shown). Uniformity of expression is in good agreement with fate mapping studies of the early zebrafish embryo (Kimmel & Warga, supra; Warga & Kimmel, supra; Heide, et al., Science, 265:517-520, 1994), which indicate that blastomeres undergo extensive cell mixing during the cleavages pnor to gastrulation.
Ectopic hh alters the expression of par-2, pax-6, and F-spondin. Zebrafish embryos were injected at the 1-8 cell stage with twhh or shh RNA and the pattern of pax-2, pax-6, or F-spondin expression was examined by whole mount in situ hybridization. […] At embryo stage, the anterior-posterior axis of the optic vesicle corresponds to the future proximal-distal axis of the eye. During the next hour of development, the posterior edge of the optic vesicle will separate from the diencephalon (Schmitt and Dowling, Comp. Neur., 344:532-542. 1994).
17(a) Cartoons of various twhh open reading frames. SS (shaded) is the predicted N-terminal signal sequence for secretion of these proteins and encompasses the first 27 amino acids of each open reading frame. The arrow indicates the predicted internal site of auto-proteolytic cleavage. Amino acid residue numbers are according to FIG. 13b. The filled triangle denotes the normal termination codon for the twhh open reading frame. Construct UHA contains a mutation that blocks auto-proteolysis (the histidine at residue 273 is changed to an alanine; see Lee, J. J., et al, supra.). Construct U356HA contains a stop codon in place of amino acid residue 357 as well as the H273A mutation in UHA. Construct N encodes just the first 200 amino acids of twhh. Construct C has had the codons for residues 31-197 deleted. […] Constructs were translated in vitro in the presence of ^35S methionine and analyzed by autoradiography after SDS-PAGE. The protein products are shown schematically to the left. […]

CC(C)CCC[C@@H](C)[C@H]1CC[C@H]2[C@@H]3CC=C4C[C@@H](O)CC[C@]4(C)[C@H]3CC[C@]12C [cholesterol]
Stimulation of His6Hh-C autocleavage in vitro (His6Hh-C protein): stimulates His2Hh-C autocleavage; also recorded: displayed stimulatory activity similar to that observed with lipids extracted from spot B

CC1=C2C(=O)[C@H]3[C@@H](CC=C4C[C@@H](O)CC[C@@]43C)[C@@H]2CC[C@]12O[C@@H]1C[C@H](C)CN[C@H]1[C@H]2C [jervine]
Accumulation of another radiolabeled sterol (tentatively zymosterol) (cholesterol biosynthesis; COS 7 cells, 24 hr): another radiolabeled sterol was found to accumulate
Radiolabeled cholesterol levels (cholesterol biosynthesis; COS 7 cells, 24 hr): reduced
Cholesterol biosynthesis in cultured cells (cholesterol biosynthesis; COS-7 cells): inhibits cholesterol biosynthesis

B1: H329A: Drosophila Hh with His-329 to alanine; in vitro translated full length and His6Hh-C25 context (protein)
chain: CGPGRGLGRHRARNLYPLVLKQTIPNLSEYTNSASGPLEGVIRRDSPKFKDLVPNYNRDILFRDEEGTGADRLMSKRCKEKLNVLAYSVMNEWPGIRLLVTESWDEDYHHGQESLHYEGRAVTIATSDRDQSKYGMLARLAVEAGFDWVSYVSRRHIYCSVKSDSSISSHVHGCFTPESTALLESGVRKPLGELSIGDRVLSMTANGQAVYSEVILFMDRNLEQMQNFVQLHTDGGAVLTVTPAALVSVWQPESQKLTFVFADRIEEKNQVLVRDVETGELRPQRVVKVGSVRSKGVVAPLTREGTIVVNSVAASCYAVINSQSLAHWGLAPMRLLSTLEAWLPAKEQLHSSPKVVSSAQQQNGIHWYANALYKVKDYVLPQSWRHD
Auto-proteolysis (processing) of in vitro translated protein (auto-proteolysis): blocked or severely inhibited
Cholesterol-stimulated autocleavage (cholesterol transfer) (Hh autoprocessing; 350 μM cholesterol/1 mM DTT): inactive
DTT-stimulated autocleavage (thioester formation) (Hh autoprocessing; 50 mM DTT): inactive

B2: hshh H329A: heat shock-inducible hh with H329A mutation blocking auto-proteolysis (protein)
chain: B1 chain
Expansion of dpp expression in the eye-antennal disc [1]: did not induce expansion of dpp expression
wg and dpp expression patterns in the leg disc [1]: produced little if any detectable difference in these patterns of expression
Expansion of wg expression beyond wild-type controls, average number of cell diameters ± standard deviation (wg expression; minutes of heat shock: 10): 0.7 ± 0.5 cell diameters
Expansion of wg expression beyond wild-type controls, average number of cell diameters ± standard deviation (wg expression; minutes of heat shock: 10/10): 1.1 ± 0.4 (145) cell diameters
Expansion of wg expression beyond wild-type controls, average number of cell diameters ± standard deviation (wg expression; minutes of heat shock: 30): 0.9 ± 0.4 (111) cell diameters
Expansion of wg expression beyond wild-type controls, average number of cell diameters ± standard deviation (wg expression; minutes of heat shock: 30/30): 1.9 ± 0.5 (93) cell diameters

B3: C-terminal fragment: Drosophila hh 25 kD C-terminal fragment (protein)
chain: CFTPESTALLESGVRKPLGELSIGDRVLSMTANGQAVYSEVILFMDRNLEQMQNFVQLHTDGGAVLTVTPAHLVSVWQPESQKLTFVFADRIEEKNQVLVRDVETGELRPQRVVKVGSVRSKGVVAPLTREGTIVVNSVAASCYAVINSQSLAHWGLAPMRLLSTLEAWLPAKEQLHSSPKVVSSAQQQNGIHWYANALYKVKDYVLPQSWRHD
Binding to heparin agarose [2]: not bound effectively by heparin agarose

B4: UHA: twhh with H273A mutation that blocks auto-proteolysis (protein, UniProt Q90419 27-416, looked up, variant H273A)
Tiggy-winkle hedgehog protein: CGPGRGYGKRRHPKKLTPLAYKQFIPNVAEKTLGASGKYEGKITRNSERFKELIPNYNPDIIFKDEENTNADRLMTKRCKDKLNSLAISVMNHWPGVKLRVTEGWDEDGHHLEESLHYEGRAVDITTSDRDKSKYGMLSRLAVEAGFDWVYYESKAHIHCSVKAENSVAAKSGGCFPGSGTVTLGDGTRKPIKDLKVGDRVLAADEKGNVLISDFIMFIDHDPTTRRQFIVIETSEPFTKLTLTAAALVFVGNSSAASGITATFASNVKPGDTVLVWEDTCESLKSVTVKRIYTEEHEGSFAPVTAHGTIIVDQVLASCYAVIENHKWAHWAFAPVRLCHKLMTWLFPARESNVNFQEDGIHWYSNMLFHIGSWLLDRDSFHPLGILHLS
Ectopic activation (induction) of pax-2 in the developing eye [3]: only somewhat less active than C in inducing pax-2
Repression of pax-6 [3]: not able to repress pax6 efficiently

B5: U356HA: twhh with stop codon in place of residue 357 and the H273A mutation (protein, UniProt Q90419 27-416, looked up, variant H273A)
Tiggy-winkle hedgehog protein: B4 Tiggy-winkle hedgehog protein
modifications: truncated after residue 356
notes: twhh with stop codon in place of residue 357 and the H273A mutation
Repression of pax-6 [3]: activities not significantly different from N
